# According to PMC10786891, “Massively parallel profiling of RNA-targeting CRISPR-Cas13d”:
# T1: EsCas13d, nuclease-dead (Eubacterium siraeum, UniProt B0MS50, R295A;H300A;R849A;H854A)
# T1 sequence: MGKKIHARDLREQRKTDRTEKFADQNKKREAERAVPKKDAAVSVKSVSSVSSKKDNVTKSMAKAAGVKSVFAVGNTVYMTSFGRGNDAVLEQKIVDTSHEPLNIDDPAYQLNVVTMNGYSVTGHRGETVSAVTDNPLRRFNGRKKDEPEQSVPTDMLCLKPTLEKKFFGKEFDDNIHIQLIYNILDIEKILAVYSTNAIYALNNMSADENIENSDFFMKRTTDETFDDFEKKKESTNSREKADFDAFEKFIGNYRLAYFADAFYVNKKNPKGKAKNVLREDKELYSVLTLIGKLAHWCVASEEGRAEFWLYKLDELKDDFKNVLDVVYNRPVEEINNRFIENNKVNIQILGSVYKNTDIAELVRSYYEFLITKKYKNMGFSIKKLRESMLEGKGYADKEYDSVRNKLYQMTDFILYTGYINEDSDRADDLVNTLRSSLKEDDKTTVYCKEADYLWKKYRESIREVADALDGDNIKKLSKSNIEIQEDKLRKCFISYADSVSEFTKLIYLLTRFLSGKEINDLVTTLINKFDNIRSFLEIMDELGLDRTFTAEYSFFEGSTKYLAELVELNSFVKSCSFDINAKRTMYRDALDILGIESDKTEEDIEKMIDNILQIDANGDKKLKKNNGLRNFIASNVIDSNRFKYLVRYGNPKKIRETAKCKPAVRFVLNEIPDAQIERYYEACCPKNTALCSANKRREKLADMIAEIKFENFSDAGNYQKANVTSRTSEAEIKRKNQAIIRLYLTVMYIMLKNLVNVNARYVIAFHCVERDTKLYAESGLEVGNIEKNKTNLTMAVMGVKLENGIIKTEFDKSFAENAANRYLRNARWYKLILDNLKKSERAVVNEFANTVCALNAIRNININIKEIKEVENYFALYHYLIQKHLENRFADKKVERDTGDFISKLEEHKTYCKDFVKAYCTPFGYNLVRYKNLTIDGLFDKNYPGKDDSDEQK
# Molecular target: T1, EsCas13d, nuclease-dead
# Test: crRNA (strand 1, pre-loaded); Mg2+; 40 mM Tris-HCl pH 7.5, 150 mM NaCl, 6 mM MgCl2, 1 mM DTT, 0.1% Tween-20, 0.2 mg/ml BSA; 25 C; 10 min per concentration, then washed
# Settings: tags: His6-TwinStrep-SUMO cleaved; N-terminal SNAP kept (SNAP-Surface 488); label: 3' end held by stalled T7 RNA polymerase
row,Binder,Kd
1,target 1 MT 5'PFS GUU 3'PFS ACU (mixed) RNA 1: CACCCGUGCAAAAAUGCAGGGGUCUAAAACUGAGCGGAUAACCUCUCUAUGG RNA 2: GGGAAUGGAUCCACAUCUACGAAUUCGUUCCAUAGAGAGGUUAUCCGCUCAACUAGAUCGGAAGAGCACACGU,15.8 ± 1.8 nM
2,target 1 MT 5'PFS GCG 3'PFS AAU (mixed) RNA 1: CACCCGUGCAAAAAUGCAGGGGUCUAAAACUGAGCGGAUAACCUCUCUAUGG RNA 2: GGGAAUGGAUCCACAUCUACGAAUUCGCGCCAUAGAGAGGUUAUCCGCUCAAAUAGAUCGGAAGAGCACACGU,33.5 ± 9.5 nM
3,target 1 MT 5'PFS GUC 3'PFS CAU (mixed) RNA 1: CACCCGUGCAAAAAUGCAGGGGUCUAAAACUGAGCGGAUAACCUCUCUAUGG RNA 2: GGGAAUGGAUCCACAUCUACGAAUUCGUCCCAUAGAGAGGUUAUCCGCUCACAUAGAUCGGAAGAGCACACGU,24.5 ± 9 nM
4,target 1 MT 5'PFS GCG 3'PFS AAC (mixed) RNA 1: CACCCGUGCAAAAAUGCAGGGGUCUAAAACUGAGCGGAUAACCUCUCUAUGG RNA 2: GGGAAUGGAUCCACAUCUACGAAUUCGCGCCAUAGAGAGGUUAUCCGCUCAAACAGAUCGGAAGAGCACACGU,32 ± 15 nM
5,target 1 MT 5'PFS GCG 3'PFS AAA (mixed) RNA 1: CACCCGUGCAAAAAUGCAGGGGUCUAAAACUGAGCGGAUAACCUCUCUAUGG RNA 2: GGGAAUGGAUCCACAUCUACGAAUUCGCGCCAUAGAGAGGUUAUCCGCUCAAAAAGAUCGGAAGAGCACACGU,~37 nM
6,target 1 MT 5'PFS GCG 3'PFS AAG (mixed) RNA 1: CACCCGUGCAAAAAUGCAGGGGUCUAAAACUGAGCGGAUAACCUCUCUAUGG RNA 2: GGGAAUGGAUCCACAUCUACGAAUUCGCGCCAUAGAGAGGUUAUCCGCUCAAAGAGAUCGGAAGAGCACACGU,25 ± 7 nM
7,"target 1 U11C,G17U (mixed) RNA 1: CACCCGUGCAAAAAUGCAGGGGUCUAAAACUGAGCGGAUAACCUCUCUAUGG RNA 2: GGGAAUGGAUCCACAUCUACGAAUUCGUACCAUAUAGAGGCUAUCCGCUCACCGAGAUCGGAAGAGCACACGU",65 ± 27 nM
8,target 1 MT 5'PFS GUC 3'PFS CAG (mixed) RNA 1: CACCCGUGCAAAAAUGCAGGGGUCUAAAACUGAGCGGAUAACCUCUCUAUGG RNA 2: GGGAAUGGAUCCACAUCUACGAAUUCGUCCCAUAGAGAGGUUAUCCGCUCACAGAGAUCGGAAGAGCACACGU,~31.5 nM
9,target 1 MT 5'PFS GUU 3'PFS ACC (mixed) RNA 1: CACCCGUGCAAAAAUGCAGGGGUCUAAAACUGAGCGGAUAACCUCUCUAUGG RNA 2: GGGAAUGGAUCCACAUCUACGAAUUCGUUCCAUAGAGAGGUUAUCCGCUCAACCAGAUCGGAAGAGCACACGU,17.6 ± 3.3 nM
10,target 1 MT 5'PFS CCC 3'PFS UUU (mixed) RNA 1: CACCCGUGCAAAAAUGCAGGGGUCUAAAACUGAGCGGAUAACCUCUCUAUGG RNA 2: GGGAAUGGAUCCACAUCUACGAAUUCCCCCCAUAGAGAGGUUAUCCGCUCAUUUAGAUCGGAAGAGCACACGU,9.7 ± 4.5 nM
11,target 1 MT 5'PFS UCA 3'PFS UCG (mixed) RNA 1: CACCCGUGCAAAAAUGCAGGGGUCUAAAACUGAGCGGAUAACCUCUCUAUGG RNA 2: GGGAAUGGAUCCACAUCUACGAAUUCUCACCAUAGAGAGGUUAUCCGCUCAUCGAGAUCGGAAGAGCACACGU,31.5 ± 14.5 nM
12,target 1 MT 5'PFS UCA 3'PFS UCC (mixed) RNA 1: CACCCGUGCAAAAAUGCAGGGGUCUAAAACUGAGCGGAUAACCUCUCUAUGG RNA 2: GGGAAUGGAUCCACAUCUACGAAUUCUCACCAUAGAGAGGUUAUCCGCUCAUCCAGAUCGGAAGAGCACACGU,12.5 ± 4.5 nM
13,target 1 MT 5'PFS CCC 3'PFS UUG (mixed) RNA 1: CACCCGUGCAAAAAUGCAGGGGUCUAAAACUGAGCGGAUAACCUCUCUAUGG RNA 2: GGGAAUGGAUCCACAUCUACGAAUUCCCCCCAUAGAGAGGUUAUCCGCUCAUUGAGAUCGGAAGAGCACACGU,~11.5 nM
14,target 1 MT 5'PFS CCC 3'PFS UUC (mixed) RNA 1: CACCCGUGCAAAAAUGCAGGGGUCUAAAACUGAGCGGAUAACCUCUCUAUGG RNA 2: GGGAAUGGAUCCACAUCUACGAAUUCCCCCCAUAGAGAGGUUAUCCGCUCAUUCAGAUCGGAAGAGCACACGU,~15 nM
15,target 1 MT 5'PFS CUG 3'PFS UUG (mixed) RNA 1: CACCCGUGCAAAAAUGCAGGGGUCUAAAACUGAGCGGAUAACCUCUCUAUGG RNA 2: GGGAAUGGAUCCACAUCUACGAAUUCCUGCCAUAGAGAGGUUAUCCGCUCAUUGAGAUCGGAAGAGCACACGU,4.45 ± 0.6 nM
16,target 1 MT 5'PFS AGA 3'PFS CAA (mixed) RNA 1: CACCCGUGCAAAAAUGCAGGGGUCUAAAACUGAGCGGAUAACCUCUCUAUGG RNA 2: GGGAAUGGAUCCACAUCUACGAAUUCAGACCAUAGAGAGGUUAUCCGCUCACAAAGAUCGGAAGAGCACACGU,~37 nM
17,target 1 MT 5'PFS AGA 3'PFS CAC (mixed) RNA 1: CACCCGUGCAAAAAUGCAGGGGUCUAAAACUGAGCGGAUAACCUCUCUAUGG RNA 2: GGGAAUGGAUCCACAUCUACGAAUUCAGACCAUAGAGAGGUUAUCCGCUCACACAGAUCGGAAGAGCACACGU,~110 nM
18,"target 1 insU 3' of 21,insC 3' of 3 (mixed) RNA 1: CACCCGUGCAAAAAUGCAGGGGUCUAAAACUGAGCGGAUAACCUCUCUAUGG RNA 2: GGGAAUGGAUCCACAUCUACGAAUUCGUACCUAUAGAGAGGUUAUCCGCUCCACCGAGAUCGGAAGAGCACACGU",22.7 ± 1.4 nM
19,target 1 MT 5'PFS ACG 3'PFS ACA (mixed) RNA 1: CACCCGUGCAAAAAUGCAGGGGUCUAAAACUGAGCGGAUAACCUCUCUAUGG RNA 2: GGGAAUGGAUCCACAUCUACGAAUUCACGCCAUAGAGAGGUUAUCCGCUCAACAAGAUCGGAAGAGCACACGU,25 ± 8 nM
20,target 1 MT 5'PFS CAA 3'PFS CAU (mixed) RNA 1: CACCCGUGCAAAAAUGCAGGGGUCUAAAACUGAGCGGAUAACCUCUCUAUGG RNA 2: GGGAAUGGAUCCACAUCUACGAAUUCCAACCAUAGAGAGGUUAUCCGCUCACAUAGAUCGGAAGAGCACACGU,32.5 ± 9.5 nM
21,target 1 MT 5'PFS ACA 3'PFS AAG (mixed) RNA 1: CACCCGUGCAAAAAUGCAGGGGUCUAAAACUGAGCGGAUAACCUCUCUAUGG RNA 2: GGGAAUGGAUCCACAUCUACGAAUUCACACCAUAGAGAGGUUAUCCGCUCAAAGAGAUCGGAAGAGCACACGU,18 ± 6 nM
22,target 1 MT 5'PFS ACU 3'PFS AAU (mixed) RNA 1: CACCCGUGCAAAAAUGCAGGGGUCUAAAACUGAGCGGAUAACCUCUCUAUGG RNA 2: GGGAAUGGAUCCACAUCUACGAAUUCACUCCAUAGAGAGGUUAUCCGCUCAAAUAGAUCGGAAGAGCACACGU,~60 nM
23,target 1 MT 5'PFS UUG 3'PFS AGA (mixed) RNA 1: CACCCGUGCAAAAAUGCAGGGGUCUAAAACUGAGCGGAUAACCUCUCUAUGG RNA 2: GGGAAUGGAUCCACAUCUACGAAUUCUUGCCAUAGAGAGGUUAUCCGCUCAAGAAGAUCGGAAGAGCACACGU,90 ± 40 nM
24,target 1 MT 5'PFS ACG 3'PFS ACU (mixed) RNA 1: CACCCGUGCAAAAAUGCAGGGGUCUAAAACUGAGCGGAUAACCUCUCUAUGG RNA 2: GGGAAUGGAUCCACAUCUACGAAUUCACGCCAUAGAGAGGUUAUCCGCUCAACUAGAUCGGAAGAGCACACGU,10.4 ± 3.5 nM
